# B1: Pseudaminic acid biosynthesis protein H (PseH) from Helicobacter pylori (enzyme, UniProt O25094 1-180, looked up)
# chain: MKKNYSYKNIQAIDFTNLNDGEKLLVLEFRNHPNTALWMYSTFISLKTHLQFIEDLKNSPNHRYFLFKEEGVYLGVGSITKINFFHKHGYLGIYKNPFLKNGGETILKALEFIAFEEFQLHSLHLEVMENNFKAIAFYEKNHYELEGRLKGFISKDKEFIDVLLYYKDKKGYNDQSLLKL
# notes: PseH, N-acetyltransferase (EC 2.3.1.202) of H. pylori, 21 kDa, residues 1-180; the construct carries an additional GIDPFT fragment (cloning artifact); it is probably N-terminal, left after cleavage of a vector tag (surmised); Crystallised with the cofactor acetyl-CoA; also called flagellin modification protein H; FlmH; source: recombinant, purified as previously described [14]
# Target: the molecule itself
# Assay: SEC; Superdex 200 HiLoad 26/60 gel filtration, 50 mM Tris/HCl pH 8.0, 200 mM NaCl; molecular weight from a calibration plot of log MW versus retention volume
protein,measurement,value
B1,stoichiometry N,2

# Reference: PMC4363471, “Crystal Structure of Helicobacter pylori Pseudaminic Acid Biosynthesis N-Acetyltransferase PseH: Implications for Substrate Specificity and Catalysis” (PLoS ONE, 2015)
